Source: PMC6347470 (Immunity, 2018)

Target: the molecule itself
Experiment: nonreducing PAGE and immunoblotting

B1: STING (natural protein, mouse (endogenous in BMDMs), UniProt Q3TBT3 1-378, looked up)
chain: MPYSNLHPAIPRPRGHRSKYVALIFLVASLMILWVAKDPPNHTLKYLALHLASHELGLLLKNLCCLAEELCHVQSRYQGSYWKAVRACLGCPIHCMAMILLSSYFYFLQNTADIYLSWMFGLLVLYKSLSMLLGLQSLTPAEVSAVCEEKKLNVAHGLAWSYYIGYLRLILPGLQARIRMFNQLHNNMLSGAGSRRLYILFPLDCGVPDNLSVVDPNIRFRDMLPQQNIDRAGIKNRVYSNSVYEILENGQPAGVCILEYATPLQTLFAMSQDAKAGFSREDRLEQAKLFCRTLEEILEDVPESRNNCRLIVYQEPTDGNSFSLSQEVLRHIRQEEKEEVTMNAPMTSVAPPPSVLSQEPRLLISGMDQPLPLRTDLI
How did the “stoichiometry N” value turn out when B1 was run?
Its value is 2.
